Data on one molecule can be found in article PMC6430810 (2019).

The target of test [1] is T1, human 4EHP (residues 45-234) for ITC (human, UniProt O60573 45-234).
T1 chain: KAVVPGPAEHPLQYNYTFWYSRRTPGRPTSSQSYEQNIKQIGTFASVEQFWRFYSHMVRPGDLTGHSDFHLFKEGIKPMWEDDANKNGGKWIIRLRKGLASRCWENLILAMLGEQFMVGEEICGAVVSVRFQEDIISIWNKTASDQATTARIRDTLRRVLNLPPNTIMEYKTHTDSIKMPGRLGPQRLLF
The experiment in a line: ITC. In general terms: Isothermal titration calorimetry measures the heat released or taken up as one component is titrated into another.

Test [2] deals with T1, human 4EHP (residues 45-234) for ITC. The experiment in a line: ITC; VP-ITC, 25 °C; TRS (1-74, 0.6 mM) in the syringe titrated against 4EHP (45-234, 0.035 mM); single binding site model.

B1: human TRS UNE-T (residues 1-74) with C-terminal His tag (domain or fragment)
chain: MFEEKASSPSGKMGGEEKPIGAGEEKQKEGGKKKNKEGSGDGGRAELNPWPEYIYTRLEMYNILKAEHDSILAE
One may read the Kd as the equilibrium constant for the complex coming apart. A higher Kd goes with lower affinity. One may read the stoichiometry N as a count of units in the complex or per binding partner. Turning to B1, in test [1], the Ka worked out at 403000 M⁻¹. Further, in test [2], the Kd was 2480 nM and the stoichiometry N was 1.
